One assay deals with nerve growth factor. The assay can be described thus: SPR (BiaCore), TrkIg2 amine-coupled to CM5 chip, NGF passed over at 0.1-100 nM, 1:1 Langmuir model.
Assay [1] addresses brain derived neurotrophic factor. The assay can be described thus: SPR (BiaCore), TrkIg2 amine-coupled to CM5 chip, BDNF passed over at 0.1-25 nM, 1:1 Langmuir model.
A further assay deals with neurotrophin-4. Put plainly: SPR (BiaCore), TrkIg2 amine-coupled to CM5 chip, NT-4 passed over at 1-100 nM, 1:1 Langmuir model. A general note: Surface plasmon resonance follows binding to a sensor surface in real time, without labels.

The term Kd denotes the equilibrium constant for the complex coming apart. A lower Kd goes with tighter binding.

For “TrkAIg2.66His (from UniProt P04629) (receptor)”, the Kd in the assay with nerve growth factor stood at 0.0792 nM. Still for that read-out and setting: for “TrkAIg26His (from UniProt P04629-2) (receptor)” the value was 0.0926 nM. On to “TrkBIg26His (from UniProt Q16620) (receptor)”, for which the figures for the dissociation constant Kd (in assay [1]; with neurotrophin-4) were 0.79 nM and 0.26 nM, respectively.

These data come from patent US20050070690A1.
